Results as given in patent US9663800B2, “Alkane exporter and its use” (Nanyang Technological University, priority 2012, dated 2017).

B1: ABC2: Y. lipolytica ABC transporter, SEQ ID NO. 4, GenBank CAG82364, heterologously expressed in S. cerevisiae (protein, listed as Yarrowia lipolytica)
chain: MEQTPPDYTGLDKNIDAEVRSIAESMYQTRREGVNDSDTDEELQRTNTIQPNLNVNPFLDTSDPQLDPLSKEFNSRKWIKTILGLKARFGNSRSISAGVSFKNLSAFGYGGGNDYQKTFTNSVMAIGPMIKKVLGGNKGSEVQILRHFDGLVRAGETCVVLGRPGSGCTTFLKSVACETYGFHLGEKSEWNYQGVPRDVMQKNARGEIVYNAEVDVHFPHLTVGDTLLFAALARTPQNRLEGVSREQHATHVRDVSMAMLGLTHTMDTKVGNDFVRGVSGGERKRVSIAESVVCGAPLQCWDNSTRGLDAANATEFIRSLRLSAEMTDASMFVSLYQASQEAYDMFDKVCVLYEGRQIYFGKTTEAKQFFLDLGFDCADRQTTGDFLTSLTNPIERIIRPGWESRVPRTPDDFEKCWLESEARQLLLQDIDEFNNEFVLGGPALDNFMGLRKDAQAKHTRVQSPYTISWPMQTRLCLWRGFLRIKGDMSTDIATVFGNFVMALVLSSMFYNMPQTTESFFSRGALLFFAILINAFASILEILSLYEQRPIVDKQNRYAMYHPAADALAAIITTFPTKTLTLVSVNLTIYFMTNLRREVGPFFIFFLFSLLCTMAMSMIFRTIGSVTKTLEQALAPASIIILALVIYTGFSLPISYMHGWARWINWLNPVAYGFEAVMVNEFRNREYECSMFVPSGGAYENVSLDYRSCAAVGAEPGLRFVNGDAFINQSYEYYNAHLWRNMGILFGFIIFFGAFYLFAVEYIQGAKSKGEVLVFRKEHIKKQRKEKNGDIESGVTMAGEKGTQESESSNTSINLQAQRGIYQWKDVCYDIKVKDGERRLLDHVDGFVKPGTLTALMGASGAGKTTLLDVLADRKSTGVVTGEMLVNGEHRDGSFQRKTGYVQQQDLHTATATVRESLEFSALLRQPSSIPESEKLAYVDEVIRILEMETYADAVVGVPGEGLNVEQRKRLTIGVELAAKPELLLFLDEPTSGLDSQTAWSIVKLLKKLAANGQAILCTIHQPSAILFQEFDRLLFLASGGRTVYYGDIGPQSSILTEYFERNGADPCPKQGNPAEWMLEVIGAAPGSTAKRDWPVVWAESPERAAKREELDEMARTVERVQTNTTERDSTGYSDSDQFAVGWWTQFKIVSKRQFQALWRTPSYLWSKVFLCAASAIFIGFSFFKAPNDMQGLQNKMFSFFMLFLIFNTVVEQIIPQFDKMRELYEARERSSKTYSWQVFMGSNMVVELIWQFFMGVIVFFCFYYPVGFQWTAEYNDSVHERGGLFFLYVLLLFLYNSTFAHMLIAGIDNKDTAAQIGTLLFTLMLLFCGVLATKEQMPGFWVFMYRVSPLTYFVGGMMATGMGRAPVTCSPHELVRFPAVPGKSCGEYMDGFISALGDSAGYLVSSSADMCEYCPMKSSDQFLDSVDISYTQRWRNWGILWAYPLFNIFAAFALYYFFRVPKKSKAQKA
B2: ABC3: Y. lipolytica ABC transporter, SEQ ID NO. 5, GenBank CAG82646, heterologously expressed in S. cerevisiae (protein, listed as Yarrowia lipolytica)
chain: MTDPVPITQDPTIYSSQQDAEIRSLAESIHSQHSNNSNNSTELTNPYVDTSDPELDPWSGQFNSRKWSRTILGLKRRYGTSKEITAGVSFKNLGAYGYGGGADYQKTVANAVLGLEGVVRTLFHLEKKEDKVQILSDFNGVLWPGETCVVLGRPGSGCTTLLKSIACETYGFQLDKETEWNYQGIPRKIMQKTCRGEIVYNAEVDVHFPHLTVGDTLMFASLARTPQNRFDGVTREQYAKHTRDVTMASLGLSHTLDTKVGNDFVRGVSGGERKRVSIAESIVCGSPLQCWDNSTRGLDAATATEFLRWLRHSAELTGASMFVSLYQASQEAYELFDKVTVLYEGQQIYFGPGEQAKQYFEEMGFECPHRQTTGDFLTSITSPAERIVAPGFEGKTPRTASEFAERWRQSQAYANLQEEIERFNTEFPVGGNRVADIMELKQEKQSDHIKVSSPYTISIPMQVKLCLTRGFQRLRGDLSMALTTVLGNFVVALILSSMFYNMPEDTSSFFSRGALLFFAMLMNAMSSVLEIIVLYELRPIVEKHQRYAMYHPFCEALASIICDFPTKFLTMLCVNVTLYFMSNLRREAGPFFIFFLFTLLCVLAMSMIFRTIAAVTKTLQQALAPAAVIILALIIYTGFTLPISYMRGWARWINYIDPIAYGFEAVMVNEFRNREFPCALFIPQQSTYDQLGSPYQGCMAVGAKPGERFVNGDRYLEMAFDYSQAHLWRNLGIMFGFILFFAFTYLTAVEFIQSAKSKGEVLVFLRSSLKQRKKRAHLMDVEANAEKVGAAQDREILVQQEEGQQEETSSCTPSDSTPKDIFQWKDVCYDIKVKGGEKRLLDNVDGWVKPGTLTALMGCSGAGKTTLLDVLADRKATGVITGDMRVNGQKRDASFQRKTGYVQQQDLHTATSTVREALEFSALLRQPSNVPKAEKIAYVDEVIDILEMQAYADAVVGVPGEGLNVEQRKRLTIGVELAAKPELLLFLDEPTSGLDSQTAWSIICLLKKLANRGQAILCTIHQPSAILFQEFDRLLFMTLGGKTVYYGDIGANSSALINYFESKGADPCPEEANPAEWMLAAIGAAPGSIAKHDWAVVWNESEERARERDLLDKMAEELAAQSTHDEKNELVTSKSVGSSQTSSSSYSAKSQYATSQATQLYYLTKRLWTYYWRSPRYIWSKLLMSIASALFIGFSYYKASQDIQGLQNQMFAFFMLFLIFVIIMVQILPHFVAQRELYEARERSSMAYSWQAFMGSNILVELPWQTLVAVLVFFCFYYPIGLQNNATGHLGERGALFFLLLWSFYVYNSTFAHMMGAAFENKENAATIGYLLFALCLIFCGVLATKEDMPHFWIFMYRVSPLTYLISGLLSAGVGETRVECTDNELVLFKPMNGTNCGKYMHPFMEGLGHTDMPMGYLVDPSATDMCGYCPISNTNGYLDQIDVKYSQRWRNYGILFAYPAFNVFMAFAFYYIFRVPKKSRKQKA

How the values were obtained:
ABC2 mRNA = assay: Quantitative RT-PCR of ABC2 transcripts after alkane treatment; type: cell-based; conditions: Y. lipolytica CLIB122, 24 h alkane treated vs. untreated, normalized to actin, p<0.05
Description: FIG. 3. mRNA transcripts levels of ABC2 and ABC3 in Y. lipolytica. Quantitative RT-PCR analysis of ABC2 (A) and ABC3 (B) in Y. lipolytica cells corresponding to treatment with octane, nonane, decane, undecane and dodecane (C8-C12). Each value of qRT-PCR was normalized to β-actin expression levels and expressed as the fold change relative to the levels detected in control samples, which were cells without alkane treatment and set equal to 1. Error bars represent the SD of triplicate.
To assess whether ABC1, ABC2, ABC3 and ABC4 are involved in alkane transport in Y. lipolytica, we analysed the effects of alkanes with different chain length (C8-C12) on the transcription levels of these four ABC transporter genes using quantitative RT-PCR.
Total RNA samples from 24 h alkane treated and untreated Y. lipolytica CLIB122 cells were prepared using RNeasy Mini Kit (Qiagen), followed by cDNA synthesis using H minus Reverse transcriptase kit (Fermentas). Quantitative RT-PCR analysis was performed on a Bio-Rad iQ5 real-time PCR detection system using SsoFast EvaGreen Supermix kit (Bio-Rad). The actin gene (YALI0D08272g) was used as reference gene for Y. lipolytica. Relative mRNA levels were derived using comparative CT method.

S. cerevisiae BY4741 [1] = assay: Alkane susceptibility test in liquid culture; type: cell-based, Saccharomyces cerevisiae; conditions: for decane tolerance increase: cells expressing the transporter vs. control (0.25% decane), OD600; for survival in 20% undecane / decane concentration tolerated: cells expressing the transporter; for decane concentration tolerated: control 0.25% decane
Experimental: (§1) FIG. 2. Alkane susceptibility test for S. cerevisiae. The alkane susceptibility was tested in cells expressing ABC2/3 or with empty plasmid. (A) Alkane susceptibility test on agar plate. Serial dilutions of cells expressing ABC2/3 were spotted on agar plates with alkanes (decane, undecane) as vapour phase. Plates were incubated at 28° C. for 2 days. (B) Alkane susceptibility test in liquid culture. Overnight cell culture was diluted into induction medium (final OD600=0.4) with different alkanes (decane & undecane) concentrations. The plates were incubated for 48 hr at 28° C. The OD600 value of each sample was determined and plotted against its corresponding alkane concentration. Symbols for strains are: control sample with empty plasmid (open circle), cells expressing ABC2 (filled circle), cell expressing ABC3 (filled triangle).
Overnight culture was diluted into 5 ml induction medium in 50 ml glass bottle (Sigma) at an initial OD600 of 0.4. Alkanes were added as different final concentration. Bottles were sealed tightly with butyl rubber stopper (Sigma) and silver aluminum seal (Sigma). Liquid culture was performed at 28° C. with shaking. Growth was monitored by measuring the OD600 at different time point. Cell culture used for time point OD checking was collected from the glass bottle using needle and syringe.
To further analyze the effect of ABC2 and ABC3 toward decane and undecane, alkane susceptibility tests in liquid culture were conducted. […] With the expression of ABC2, decane tolerance was boosted about 80-fold (20% vs. 0.25% decane) and cells can survive in 20% undecane. For ABC3, decane tolerance is increased slightly by about 3-fold (0.75% vs. 0.25% decane) and cells are resistant to 20% undecane. It is apparent that the expression of ABC2 and ABC3 transporters improved the tolerance toward C10 and C11 alkanes.

S. cerevisiae BY4741 [2] = assay: Alkane susceptibility test on agar plate; type: cell-based, Saccharomyces cerevisiae; conditions: cells expressing the transporter, 28° C., 2 days; for cell tolerance toward decane: decane as vapour phase; for cell tolerance toward undecane: undecane as vapour phase
Experimental: as §1
Alkane susceptibility test on plates was performed according to the methods of Mauersberger et al.. Exponentially growing cells in induction medium were centrifuged and re-suspended with induction medium at OD600=1. Ten microliter aliquots of successive 10-fold dilutions (non diluted, 10-1, 10-2, 10-3) of cells were spotted onto the induction medium plate. Medium chain alkanes were supplied as vapour phase by placing 200 μl alkane on a sterile filter paper in the lid of the petri dish. Plates were incubated at 28° C. for 2 days.
Toxicity test was implemented to study the effect of ABC2 and ABC3 on the tolerance of the cells toward alkanes. The toxic effects of alkanes on S. cerevisiae with ABC2 and ABC3 were measured through alkane susceptibility test on agar plates. […] It was observed that the expression of ABC2 would lead higher tolerance toward decane than ABC3.

S. cerevisiae BY4741 [3] = assay: Intracellular alkane accumulation (GC-FID) in cells expressing ABC2/3; type: cell-based, Saccharomyces cerevisiae; conditions: S. cerevisiae BY4741 expressing the transporter, 48 h, control with empty plasmid; for lower intracellular decane level relative to the control: 0.5% decane; for reduction of intracellular undecane level compared to the control sample: 20% undecane
Experimental: FIG. 1. Intracellular alkane accumulation by ABC2 and ABC3. S. cerevisiae BY4741 with and without ABC2/3 were cultured under exposure of 0.5% alkane or 20% undecane. After 48 h incubation, intracellular alkane levels were measured. Intracellular alkane levels were normalized to that of control carrying empty plasmid. Data shown are the mean±SD of four biological replicates.
Intracellular alkane accumulation was analysed with GC-FID after 48 h incubation with 0.5% decane or 20% undecane.
After induction for 48 h with or without addition of alkanes, S. cerevisiae cells transformed with pYES2, pYES2ABC2 and pYES2ABC3 were harvested at 6000 g for 5 min at 4° C. After washing with 50 mM Tris.Cl, cells were equally divided into two parts, one part for alkane GC analysis and the other for determination of total protein concentration. For GC analysis, cell pellets were re-suspended in freshly prepared Chloroform/Methanol (v/v, 2:1). Dodecane was added into cell suspension as an internal standard. Acid-washed glass beads were added until the suspension was covered. Cells were then lysed by mechanical agitation using FastPrep-24 (MPBio) for 6 min at 6 m/s. The crude extract was obtained by pipette. After addition of autoclaved ddH2O, the crude extract was emulsified for 10 min by inversion. After centrifuge, the crude extract was separated into two phases. The bottom phase containing alkane was transferred into a new 1.5 ml microcentrifuge tube and purified as above with HPLC grade chloroform and autoclaved ddH2O until particulate matter was no longer observable. The purified solution was transferred into a clear GC vial for GC analysis. To check the total protein concentration, Cell pellets were re-suspended into 50 mM Tris.Cl and lysed via mechanical agitation with acid-washed glass beads using FastPrep-24 for 6 min at 6 m/s. Protein concentration of obtained crude extract was determined using the Bradford protein assay (Bio-Rad). Intracellular alkane levels were normalized to internal standard and cell lysate protein content.

Molecule	mRNA levels of ABC2 (ABC2 mRNA)	alkane concentration causing a significant decrease in viability of the control cells (S. cerevisiae BY4741 [1]; control cells with empty plasmid, 48 hr, 28° C.)	decane tolerance increase (S. cerevisiae BY4741 [1]; 48 hr, 28° C.)	survival in 20% undecane (S. cerevisiae BY4741 [1])	decane concentration tolerated (S. cerevisiae BY4741 [1]; 48 hr, 28° C.)	cell tolerance toward decane (S. cerevisiae BY4741 [2])	cell tolerance toward undecane (S. cerevisiae BY4741 [2])	lower intracellular decane level relative to the control (S. cerevisiae BY4741 [3])	reduction of intracellular undecane level compared to the control sample (S. cerevisiae BY4741 [3])
CCCCCCCC [octane]	significantly increased	–	–	–	–	–	–	–	–
CCCCCCCCCCC [undecane]	significantly increased	20%	–	–	–	–	–	–	–
B1	–	–	about 80 fold	can survive	20%	considerably improved	considerably improved	~5 fold	approximately 30 fold
B2	–	–	about 3 fold	resistant	0.75%	considerably improved	considerably improved	~5 fold	approximately 30 fold
